# B1: sTNFR-I 3D/N105 (receptor)
# chain: DSVCPQGKYIHPQNNSICCTKCHKGTYLYNDCPGPGQDTDCRECESGSFTASENHLRHCLSCSKCRKEMGQVEISSCTVDRDTVCGCRKNQYRHYWSENLFQCFNCSLCLNGTVHLSCQEKQNTVCT
# Target: TNFα from R&D Systems (L929 cytotoxicity assay)
# Assay: cell-based or functional assay
binder,measurement,value
B1,"ED50 (ng/mL), L929 cytotoxicity assay, run #2, single data point",413 ng/mL

# Reference: patent US20030054439A1 (Amgen, published 2003)
